Experimental data published in the nanobody polyreactivity screen of Harvey et al. (2022).

assay: yeast display, Sf9 membrane polyspecificity reagent, FACS + sequencing; frameworks hold sequencing errors
Outline: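 Galactose induction of a Saccharomyces cerevisiae BJ5465 synthetic nanobody display library ran 36–48 hours. The cells were then stained for 1 hour at 4 °C with 10% biotinylated, detergent-solubilized Sf9 membrane reagent, pulled down on streptavidin microbeads and FACS-sorted into low and high (top ~1%) gates on expression and reagent-binding fluorescence. Labels for polyreactivity follow the gate of origin.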

Sequence | polyreactivity (PSR sort gate)
QVQLVESGGGLVQAGGSLRLSCAASGYTIFSYGMGWYRQAPGKERELVAAISSGDRTNYADSVKGRFTISRDNAKNTVYLQMNSLKPEDTAVYYCNADRASSSVGYSDDFGHDSWGQGTQVTVSS | low polyreactivity
QVQLVESGGGLVQAGGSLRLSCAASGYTIRKNAMGWYRQAPGKERELVAAMSRSGGSTYYADSVKGRFTISRDNAKNIVYLQMNSLKPEDTAVYYCNTRYPYYWPMYGYWGQGTQVTVSS | high polyreactivity
QVQLVESGGGLVQAGGSLRLSCAASGYTIRYNALGWYRQAPGKERELVAAITQRSGSTYADSVKGRFTISRDNAKNTVYLQMNSLKPEDTAVYYCAARTPGYKLYDYWGQGTQVTVSS | low polyreactivity
QVQLVESGGGLVQAGGSLRLSCAASGYTIYSYAMGWYRQAPGKERELVAAITESGARTYYADSVKGRFTISRDNAKNTVYLLMNSLKPEDSAVYYCAADYAWPLRVTGDYWGQGTQVTVSS | low polyreactivity
QVQLVESGGGLVQAGGSLRLSCAASGYTLGSYAMGWYRQAPGKERELVATITWGGGSTDYADSVKGRFTISRDNAKNTVYLQMNSLKPEDTAVYYCAAEDDSYDVEGSLYYWGQGTQVTVSS | low polyreactivity
QVQLVESGGGLVQAGGSLRLSCAASGYTLRPNGMGWYRPAPGKERELVAAISSGGSTYYADSVKGRFTISRDNAKNTVYLQMNSLKPEDTAVYYCAAEYWYDYWGQGTQVTVSS | low polyreactivity
QVQLVESGGGLVQAGGSLRLSCAASGYTLSFNAMGWYRQAPGKARELVAGITYSGGSTYYSDSVKGRFTISRDNAKNTVYLQMTSLKPEDTAVYYCNKASGVYYGHLDYWGQGTQVTVSS | low polyreactivity
QVQLVESGGGLVQAGGSLRLSCAASGYTLTPYTMGWYRQAPGKERELVAAINRSGGSTYYADSVKGRFTISRDNAKNTVYLQMNSLKPEDTAVYYCAAYGYYNFGYYYWGQGTQVTVSS | high polyreactivity
QVQLVESGGGLVQAGGSLRLSCAASGYTLYPNAMGRYRQAPGKERELVAAISSGSSTYADSLKGRFTISRDNAKNTVYLQMNSLKPVDTAVYYCNADARIHYDYWGQGTQVTVSS | low polyreactivity
QVQLVESGGGLVQAGGSLRLSCAASGYTMGWYRQAPGKEREYGAAINQTGGSTYADSVKGRFTISRDNAKNTVYLQMNSLKPEDTAVYYCATDPAYWGDQPPEYDYWGQGTQVTVSS | low polyreactivity
QVQLVESGGGLVQAGGSLRLSCAASGYTVLYAIGWYRQAPRKDRELVAAISSRTGTTYYADSVKGRFTISRDNAKNSVYLQMNSLKREDTAVYYCNVEYFYYFRENGDYWGQGTQVTVSS | low polyreactivity
QVQLVESGGGLVQAGGSLRLSCAASGYTVRFNAMGWYRQAPGKEREFVAAIDFGGAGTYYADSVKGRFTISRDNAKNTVYLQMNSLKPEDTAVYYCNARDGVTTEFDYWGQGTQVTVSS | low polyreactivity
QVQLVESGGGLVQAGGSLRLSCAASISSINAMGWYRQAPAKEREVVAASRWSGSSTYYADSVKGRFTISRDNAKNTVYLQMNSLKPEDTAGYYCAADTTTGDRGFDYWGQGTQVTVSS | high polyreactivity
QVQLVESGGGLVQAGGSLRLSCAASKESINAMGWYRQAPGKERELVAAIGWSGSSTYYADSVKGRFTISRDNAKNTVYLQMNSLKPEDTAVYYCAADTTTGDRGFDYWGQGTQVTVSS | high polyreactivity
QVQLVESGGGLVQAGGSLRLSCAASLRTFAWYAMGWYRQAPGKERELVAAITNRGSGTYYADSVKGRFTISRDNAKNTVYLQMNSLKPEDTAVYYCAKDPITATTLDERVFYWGQGTQVTLSS | low polyreactivity
QVQLVESGGGLVQAGGSLRLSCAASRITFSLYAMGWYRQAPGKERELGAAISRGGSTKYADSVKGRFTISRDNAKNTVYLQMNSLKPEDTAVYYCNASARTYGGQTWNYYWGQGTQVTVSS | high polyreactivity
QVQLVESGGGLVQAGGSLRLSCAASRITFYSYAMGWYRQAPGKERELVAAITFRGTSTYYADSVKGRFTISRDNAKNTVYLQMNSQKPEDTAVYYCAAYSGQARGYDYWGQGTQVTVSS | high polyreactivity
QVQLVESGGGLVQAGGSLRLSCAASRPIFYANAKGGYRQAPGKEREFVATIRRGTSTNYADSVKGRFTISRDNAKNTVYLQMNSLKPEDTAVYYCAVVSNGRRERYYYWGQGTQVTVSS | low polyreactivity
QVQLVESGGGLVQAGGSLRLSCAASRRIFGFYAMGWYRQAPGKERELVADINWSATSTYYADSVKGRFTISRDTAKNTVYLQMNSLKPEDTAVYYCAADVSYRYYWGQGTQVTVSS | low polyreactivity
QVQLVESGGGLVQAGGSLRLSCAASRRIFSDNAMGWNRKAPGKERELVAAITFRDGSTYADSVKGRFTISRDNAKNTVYLPMNSLKPEDTAVYYCNRRSQVHSHSKHDYWGQGTQVTVSS | low polyreactivity
QVQLVESGGGLVQAGGSLRLSCAASRRIFYWYAMGWYRQAPGKEREWVAAITWSGGSTYYADSVKGRFTISLDNAKNTVYLQMNSLKREDTAVYFCNAEVYWDVYPGLYYYDIYDYWGQGNQVTVSS | low polyreactivity
QVQLVESGGGLVQAGGSLRLSCAASRRTFNGNAMGWYRQAPGKETELVATITSSAGTTYYADSVKGRFTISRDNAKNTVYLQMNSLKPEDTAVYYCAKRIWRSYPYRPYYSEFGYWGQGTQVTVSS | high polyreactivity

Sequence | polyreactivity (PSR sort gate)
QVQLVESGGGLVQAGGSLRLSCAASRRTFSQYAMGWYRQAHGKERELVAAITSARSTYYADSVKGRFTISRDNAKNTVYLQMNSLKPEDTAVYYCAAYIRFRSNWGQGTQVTVSS | high polyreactivity
QVQLVESGGGLVQAGGSLRLSCAASRRTFYEYAMGWYRQAPGKERELVAAITRSGGSTYYADSVKGRFTISRDNAKNTVYLQMNSLKPEDTAVYYCAAYRHQYRVRYYTAYDYWGQGTQVTVSS | high polyreactivity
QVQLVESGGGLVQAGGSLRLSCAASRSIFAGNAMVWYRQSPGKERELVAGITFGDDSTYYADSVKGRFTISRDNAKNTVYLQMNSLKPEVTAVYYCATDLHPYNYYFYHYWVDAAYDYLGQGTQVTVSS | low polyreactivity
QVQLVESGGGLVQAGGSLRLSCAASRSTFEGYAMGLYRQAPGKERELVAAITVSVGSTYYADSVKGRFTISRDNAKNTVYLQMNSLKPEDTAVYYCAADYDYQYRYYYWGQGTQVTVSS | low polyreactivity
QVQLVESGGGLVQAGGSLRLSCAASRSTITYNAMGWYRQAPGKERELVAAISFSGGRTYYADSVKGRFTISRDNAKNIVYLHMNRLKPEDTAVYYCAKRYGASFYYWGQGTQVTVSS | high polyreactivity
QVQLVESGGGLVQAGGSLRLSCAASRSTLCQNAMGWYRQAPGKEREFVADNSGSGDSTYYADSVKGRFTISRDHANNTVYLQLNSLTPEDTAVYYCATPSPHVGLKWEYDSWGQGTQVTVSS | low polyreactivity
QVQLVESGGGLVQAGGSLRLSCAASRYIFAHYAMGWYRQAPGKERELVAAISTRGGSTYYADSVKGRFTISRDNAKNTVYLQMNSLKPEDTAVYYCNNYRYAGITAEFYYWGQGTQVTVSS | high polyreactivity
QVQLVESGGGLVQAGGSLRLSCAASRYIFVRYAMGWYRQAPGKERELVAPNNSSGGRTYYAHSVKGRFTISRDNAKNTVYLQMNSLKQEDTAVYYCAAYGYYRSGYRALEGYWGQGTQVTVSS | high polyreactivity
QVQLVESGGGLVQAGGSLRLSCAASSRIFVAKAMGWYRKAPGKERELVATITRGASTNYADSVKGRFTISRDNAKNTVYLQMNRLKPEDTAVYYCDKRSYTGYEYWGQGTQVTVSS | low polyreactivity
QVQLVESGGGLVQAGGSLRLSCAASVFNFIYYTMGWYRPAPGKERELVAAISWSGGGTYYADSVKGRFTISRDNAKNTVYLLMNRLKPEDTAVYYCAAYWYVSSRDFEYWGQGTQVTVSS | high polyreactivity
QVQLVESGGGLVQAGGSLRLSCAASVFTCAVYVMGWYRQAPGKERELVANISFSVGSTYYADSVKGRFTISRDYAKNTVYLQMNSLKPEDTAVYYCNADPPPEYYPDKDNYWGQGTQVTVSS | low polyreactivity
QVQLVESGGGLVQAGGSLRLSCAASVFTFPPYAMGWSRQAPGKERELVAAISSAGSTKYADSVKGRFTISRDNAKNTVYLQMNSLKPEDTAVYYCAARWARSYDYWGQGTQVTVSS | low polyreactivity
QVQLVESGGGLVQAGGSLRLSCAASVLIFYWYAMGWYRQAPGKERELVAAISSAGSTNYADSVKGRFTISRDNAKNTVYLQMNSLKPEDTAVYYCYARIAYRYSNYGYWGQGTQVTVSS | low polyreactivity
QVQLVESGGGLVQAGGSLRLSCAASVLTFITNVMVWYRQAPGKERELVAVISSRGGTTYYADSVKGRFTISRDNAKNTVYLQMNSLKPEETAVYYCNRVRSPKYDWGQGTQVTVSS | high polyreactivity
QVQLVESGGGLVQAGGSLRLSCAASVPTFPFNAMGWYRQAPGKERELVAAISWRDGRTYYADSVKGRFTISRDNAKNTVYLQMNSLKPEDTAVYYCNVVKRRSDWGMDYWGQGTKVTVSS | high polyreactivity
QVQLVESGGGLVQAGGSLRLSCAASVRIFGKYAMGRYRQAPGKERELVAAITNSGGRTYYAASVKGRFTISRDNAKNTVYLQMNSLKPEDTAVYYCAALYHASTRQMDYWGQGTQVTVSS | high polyreactivity
QVQLVESGGGLVQAGGSLRLSCAASVRIFGSNVMGWYRQAPGKERELVAAINWIGGSTYYADSVKGRFTISRDNAKNTVYLQMNSLKPEDTAVYYCARKRYNGRGYVGYYYWGQGTQVTVSS | high polyreactivity
QVQLVESGGGLVQAGGSLRLSCAASVRIFGYNAMGWSRQAPGKERYLVAAITTSGGSTYYADSVKGRFTISRDNAKNTVYLQMNSLKPEDTAVYYCARDSLQVFYPYASDDYWGQGTQVTVSS | low polyreactivity
QVQLVESGGGLVQAGGSLRLSCAASVRIFQYYVMGWYIQAPGKERELVAAITSGGGTKYADSVKGRFTISRDNAKNTVYLQMNSLIPEDTAVYFCAAAWFDQYSRYDYWGQGTQVTVSS | low polyreactivity
QVQLVESGGGLVQAGGSLRLSCAASVRIFRGNDMGWYRKAPGKERELVARITGNDGDTYYADSVKGRFTISRDNAKNTVYLQMNSLKPEDTAVYYCATDTSSYRRRYYYWGQGTQVTVSS | low polyreactivity
QVQLVESGGGLVQAGGSLRLSCAASVRIFRYYVMGWYRQAPGKVRELVAAITSGTSTNFAESVKGRFTISRDNAKNTVYLQMNRLKPEDTAVFYCAVRSPRGGRTRFNSNYWGQGTQVTVSS | high polyreactivity
